Usually Kd stands for the constant that tells how readily two partners part at equilibrium. Low readings indicate higher affinity, high ones lower affinity. Broadly, the koff is the first-order rate constant of dissociation. Higher therefore signals fast dissociation. As a reminder, the kon is the second-order rate constant of association. Low readings indicate slower complex formation, high ones faster complex formation.

B1: L1-C5 (VHH)
VHH: EVQLQASGGGLVQAGGSLRLSCIASGRAFSTTNMGWFRQAPGKEREFVTRVNWSGGVTSYADSVKGRFTLSRDYTKNTVYLQMNSLKPEDTAVYYCAGSTVWSTDRAHYNYWGQGTQVTVSS
notes: llama sdAb of the L1-H7 family; has a single N to Y substitution in framework 3 not seen in other members of the family; also called sdAb L1-C5
B2: L1-G2 (VHH)
VHH: B1 VHH with I23T, Y74N, N84D, A107K
notes: llama sdAb of the L1-H7 family; also called sdAb L1-G2
B3: L1-H7 (VHH)
VHH: B1 VHH with Y74N, Q114R
notes: llama sdAb of the L1-H7 family; also called sdAb L1-H7
B4: L1-G2+ (VHH)
VHH: B1 VHH with I23T, T49C, L70C, Y74N, N84D, A107K
notes: also called disulfide mutant of L1-G2
B5: L1-E6 (VHH)
VHH: B1 VHH with S63P, Y74N, R106G
notes: llama sdAb of the L1-H7 family; also called sdAb L1-E6
B6: L1-H2 (VHH)
VHH: EVQLQASGGGLVQAGGSLRLSCAASGRTLSTGVMGWFRQLPGKEREFVARITWIAGSSLYADSVKGRFTISRDNTNNTVYLQMNALKPEDTAVYYCAANLAGNSWPYKTPMDYDSWGQGTQVTVSS
notes: llama sdAb of the L1-H2 family; also called sdAb L1-H2
B7: L1-E2 (VHH)
VHH: EVQLQASGGGLVQPGGSLRLSCAASGFSISSATMSWVRQAPGKGLEWVSTVQDGAGIISSADSAKARFTISRDSAKNTLYLQMNSLKPEDTAVYYCRTVVFGRILRGQGTQVTVSS
notes: llama sdAb, only member of the L1-E2 family; also called sdAb L1-E2

Substitutions are numbered along the chain they refer to.

For the assay, the target named is T1, Vaccinia Virus, Western Reserve, L1R Protein with C-Terminal Histidine Tag (Vaccinia virus, strain Western Reserve, UniProt P07612).
T1 construct: also called L1 antigen; recombinant L1 antigen; source: obtained through BEI Resources (NR-2625), recombinant from baculovirus
Put plainly: SPR; […] (10 µg/ml, […], dissociation 600 s; […]. To be noted: both partners purified. On the technique in general: In SPR one partner is held on a chip, and binding of the other changes the refractive index at the surface.
Molecule B1 yielded a Kd of 4 nM, a koff of 0.032 s⁻¹ and a kon of 7.2e+06 M⁻¹ s⁻¹.
Molecule B2 registered a Kd of 1.9 nM, a koff of 0.001 s⁻¹ and a kon of 530000 M⁻¹ s⁻¹.
Turning to B3, the affinity, expressed as Kd, was 1.5 nM; the koff was found to be 0.00087 s⁻¹; the kon was found to be 560000 M⁻¹ s⁻¹.
B4 showed a Kd of 1 nM, a koff of 0.0021 s⁻¹ and a kon of 2.1e+06 M⁻¹ s⁻¹.
The matching figures for B5: 2.6 nM, 0.001 s⁻¹ and 390000 M⁻¹ s⁻¹.
For B6, the Kd came to 1.8 nM, the koff was 0.0021 s⁻¹ and the kon was determined as 1.2e+06 M⁻¹ s⁻¹.
The matching figures for B7: 0.7 nM, 0.0045 s⁻¹ and 6.5e+06 M⁻¹ s⁻¹.

Values taken from PMC4161341 (PLoS ONE, 2014).
